Experimental findings from publication PMC5405413, “The plant cell-wall enzyme AtXTH3 catalyses covalent cross-linking between cellulose and cello-oligosaccharide” (Scientific Reports, 2017) are described below.

For data set [1], the target named is T1, AtXTH22 (Arabidopsis thaliana, UniProt Q38857).
T1 construct: gene XTH22
T1 sequence (Q38857 22-284): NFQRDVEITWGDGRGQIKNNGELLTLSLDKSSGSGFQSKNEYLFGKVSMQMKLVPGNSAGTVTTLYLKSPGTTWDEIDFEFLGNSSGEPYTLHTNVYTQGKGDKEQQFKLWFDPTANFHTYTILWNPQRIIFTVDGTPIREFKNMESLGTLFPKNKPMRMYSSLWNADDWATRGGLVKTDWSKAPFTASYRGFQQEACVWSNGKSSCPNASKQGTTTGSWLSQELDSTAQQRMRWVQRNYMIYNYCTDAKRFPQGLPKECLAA
Description: transglycosylation, size-exclusion chromatography with fluorescence detection. The class given is biochemical. The settings on record: 25 μM acceptor; donor tamarind xyloglucan 2 mg/mL; 50 mM sodium acetate pH 6.0, 30 °C, 24 h; labelled compound.

Substrate in data set [2]: OC[C@@H](O)[C@@H](O[C@@H]1O[C@H](CO)[C@@H](O[C@@H]2O[C@H](CO)[C@@H](O[C@@H]3O[C@H](CO)[C@@H](O)[C@H](O)[C@H]3O)[C@H](O)[C@H]2O)[C@H](O)[C@H]1O)[C@H](O)[C@@H](O)CNc1ccccn1
In words: transglycosylation, fluorescent product by anion-exchange LC after cellulase digestion. The data set is classed as biochemical, Arabidopsis thaliana. Particulars: acceptor, donor amorphous cellulose, 50 mM sodium acetate pH 5.0, 30 °C, 6 h, labelled compound. An excerpt:
(§1) transglycosylation, fluorescent product by anion-exchange LC after cellulase digestion on AtXTH3 | Michaelis constant (KM) and turnover number (kcat) for acceptor oligosaccharides (left: GGGG-AP; right: XXXG-AP)

Substrate in data set [3]: OC[C@@H](O)[C@@H](O[C@@H]1O[C@H](CO[C@H]2OC[C@@H](O)[C@H](O)[C@H]2O)[C@@H](O[C@@H]2O[C@H](CO[C@H]3OC[C@@H](O)[C@H](O)[C@H]3O)[C@@H](O[C@@H]3O[C@H](CO[C@H]4OC[C@@H](O)[C@H](O)[C@H]4O)[C@@H](O)[C@H](O)[C@H]3O)[C@H](O)[C@H]2O)[C@H](O)[C@H]1O)[C@H](O)[C@@H](O)CNc1ccccn1
Described as above. The settings on record: acceptor, donor amorphous cellulose, 50 mM sodium acetate pH 5.0, 30 °C, 6 h, labelled compound. The data set is classed as biochemical, Arabidopsis thaliana.
From the text: as §1

Broadly, the Km is the concentration of substrate that gives half-maximal velocity.

`OC[C@@H](O)[C@@H](O[C@@H]1O[C@H](CO[C@H]2OC[C@@H](O)[C@H](O)[C@H]2O)[C@@H](O[C@@H]2O[C@H](CO[C@H]3OC[C@@H](O)[C@H](O)[C@H]3O)[C@@H](O[C@@H]3O[C@H](CO[C@H]4OC[C@@H](O)[C@H](O)[C@H]4O)[C@@H](O)[C@H](O)[C@H]3O)[C@H](O)[C@H]2O)[C@H](O)[C@H]1O)[C@H](O)[C@@H](O)CNc1ccccn1` [XXXG-AP, aminopyridyl xyloglucan-heptasaccharide]: in data set [1], the “transglycosylation, size-exclusion chromatography with fluorescence detection” value is “AtXTH22 almost exclusively transferred xyloglucans to xyloglucan oligosaccharides”.

B1: AtXTH3 (Arabidopsis thaliana) (protein)
chain: RVFGGRGIEKFVTFGQNYIVTWGQSHVSTLHSGEEVDLYMDQSSGGGFESKDAYGSGLFEMRIKVPSGNTGGIVTAFYLTSKGGGHDEIDFEFLGNNNGKPVTLQTNLFLNGEGNREERFLLWFNPTKHYHTYGLLWNPYQIVFYVDNIPIRVYKNENGVSYPSKPMQVEASLWNGDDWATDGGRTKVNWSYSPFIAHFRDFALSGCNIDGRSNNVGACESSNYWWNAGNYQRLSGNEQKLYEHVRSKYMNYDYCTDRSKYQTPPRECY
For B1, in data set [2], the Km was found to be 58.8 ± 8.4 µM and the kcat is listed as 8.0 ± 0.5 x10^-5 sec^-1. Moreover, in data set [3], the Km was determined as 8.6 ± 2.3 µM and the kcat is 9.0 ± 1.0 x10^-5 sec^-1.
